# In paper PMC5479578 (Biochemistry, 2017):
# Square brackets hold non-standard residues; d marks the D form. Ends that are not written are not given here. Peptide text beside a SMILES is read from it. * marks the point of attachment. FITC = O=C1OC2(c3ccc(O)cc3Oc3cc(O)ccc32)c2ccc(NC(=S)*)cc21; Biotin = O=C1N[C@H]2[C@H](CS[C@H]2CCCCC(=O)*)N1; pT = C[C@@H](OP(=O)(O)O)[C@H](N)C(=O)O
# T1: PDZ1 of NHERF1 (Homo sapiens, UniProt O14745)
# T1 sequence (O14745 1-140): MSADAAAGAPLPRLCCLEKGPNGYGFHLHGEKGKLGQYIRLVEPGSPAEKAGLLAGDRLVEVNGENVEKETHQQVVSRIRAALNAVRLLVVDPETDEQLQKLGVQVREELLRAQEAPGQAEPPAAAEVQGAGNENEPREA
# T2: PDZ2 of NHERF1 (Homo sapiens, UniProt O14745)
# T2 sequence (O14745 133-300): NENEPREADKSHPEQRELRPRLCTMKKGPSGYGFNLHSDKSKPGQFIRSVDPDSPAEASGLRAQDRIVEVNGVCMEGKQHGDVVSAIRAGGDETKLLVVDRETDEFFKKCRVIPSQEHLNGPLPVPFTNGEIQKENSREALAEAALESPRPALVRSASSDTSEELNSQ
# T3: NHERF1 PDZ1 domain (1-140) (human, UniProt O14745 1-140)
# T3 sequence (looked up): T1 sequence (O14745 1-140)
# T4: NHERF1 PDZ2 domain (133-300) (human, UniProt O14745 133-300)
# T4 sequence (looked up): T2 sequence (O14745 133-300)
# Experiments:
# PTHR = test: Mass spectrometry of PTHR phosphorylation in cell lysates; format: cell-based; settings: PTH(1–34) treatment; MS-MS of cell lysates
# [1] = biological target: NHERF1 PDZ1 domain (1-140) (human) (UniProt O14745); test: ITC
# [2] = biological target: NHERF1 PDZ2 domain (133-300) (human) (UniProt O14745); test: ITC
# PDZ1 of NHERF1 = biological target: T1, PDZ1 of NHERF1; test: Isothermal titration calorimetry, NHERF1 PDZ1; format: binding
# PDZ2 of NHERF1 [3] = biological target: T2, PDZ2 of NHERF1; test: Isothermal titration calorimetry, NHERF1 PDZ2; format: binding
# PDZ2 of NHERF1 [4] = biological target: T2, PDZ2 of NHERF1; test: Surface plasmon resonance, NHERF1 PDZ2; format: binding
# [5] = biological target: T3, NHERF1 PDZ1 domain (1-140); test: SPR
# [6] = biological target: T4, NHERF1 PDZ2 domain (133-300); test: SPR
# [7] = biological target: T4, NHERF1 PDZ2 domain (133-300); test: fluorescence polarisation
# [8] = biological target: T3, NHERF1 PDZ1 domain (1-140); test: SPR; remark: listed apart in the source
# [9] = biological target: T4, NHERF1 PDZ2 domain (133-300); test: SPR; remark: listed apart in the source
# [10] = biological target: T3, NHERF1 PDZ1 domain (1-140); test: ITC
# [11] = biological target: T4, NHERF1 PDZ2 domain (133-300); test: ITC
# [12] = biological target: T3, NHERF1 PDZ1 domain (1-140); test: fluorescence polarisation
# [13] = biological target: T4, NHERF1 PDZ2 domain (133-300); test: fluorescence polarisation; remark: listed apart in the source
# [14] = biological target: T3, NHERF1 PDZ1 domain (1-140); test: fluorescence polarisation; remark: listed apart in the source
# [15] = biological target: T4, NHERF1 PDZ2 domain (133-300); test: fluorescence polarisation; remark: listed apart in the source
# [16] = biological target: T3, NHERF1 PDZ1 domain (1-140); test: fluorescence polarisation; remark: listed apart in the source
# [17] = biological target: T4, NHERF1 PDZ2 domain (133-300); test: fluorescence polarisation; remark: listed apart in the source
# [18] = biological target: T3, NHERF1 PDZ1 domain (1-140); test: fluorescence polarisation; remark: listed apart in the source
# [19] = biological target: T4, NHERF1 PDZ2 domain (133-300); test: fluorescence polarisation; remark: listed apart in the source
# [20] = biological target: T3, NHERF1 PDZ1 domain (1-140); test: fluorescence polarisation; remark: listed apart in the source
molecule,measurement,setting,value
"human Nle^8,18Tyr^34-PTH(1–34)",phosphorylation of PTHR Thr591,PTHR,promoted phosphorylation of Thr591
PTHRct-8 peptide with Ala at Glu-6,Kd,[1],13.1 µM
same,dH,[1],-4.3 kcal/mol
same,stoichiometry N,[1],1.1
same,Kd,[2],18.1 µM
same,stoichiometry N,[2],1.12
QEEWATVM [QEEWATVM],Kd,PDZ1 of NHERF1,34.2 ± 0.5 µM
same,Kd,PDZ2 of NHERF1 [3],35.5 ± 2 µM
QAEWETVM [QAEWETVM],Kd,PDZ1 of NHERF1,13.1 ± 1.7 µM
same,Kd,PDZ2 of NHERF1 [3],18.1 ± 2.4 µM
PTHRct-8 peptide with Ala at Glu-3,Kd,[1],34.2 µM
same,stoichiometry N,[1],1.15
same,Kd,[2],35.5 µM
same,dH,[2],-8.6 kcal/mol
same,stoichiometry N,[2],0.88
PTHRct-8 peptide with Ala at Glu-5,Kd,[1],25.5 µM
same,dH,[1],-7.6 kcal/mol
same,stoichiometry N,[1],1.21
same,Kd,[2],26.8 µM
same,dH,[2],-10.3 kcal/mol
CSCC[C@H](NC(=O)[C@@H](NC(=O)[C@@H](NC(=O)[C@H](CCC(=O)O)NC(=O)[C@H](Cc1c[nH]c2ccccc12)NC(=O)[C@H](CCC(=O)O)NC(=O)[C@H](CCC(=O)O)NC(=O)[C@H](CCC(N)=O)NC(=O)[C@H](CC(C)C)NC(=O)[C@H](CC(C)C)NC(=O)[C@H](C)NC(=O)[C@@H]1CCCN1C(=O)[C@@H]1CCCN1C(=O)[C@H](CCCNC(=N)N)NC(=O)[C@H](CCC(=O)O)NC(=O)[C@@H]1CCCN1C(=O)CNC(=O)[C@H](CO)NC(=O)[C@H](C)NC(=O)[C@H](CCC(=O)O)NC(=O)[C@H](CCC(=O)O)NC(=O)[C@H](CC(=O)O)NC(=O)CCCC[C@@H]1SC[C@@H]2NC(=O)N[C@@H]21)[C@@H](C)O)C(C)C)C(=O)O [b-PTHRct-22] (Biotin-DEEASGPERPPALLQEEWETVM-OH),Kd,PDZ2 of NHERF1 [4],11.5 ± 0.4 µM
QAAWETVM [QAAWETVM],Kd,PDZ1 of NHERF1,24.4 ± 0.6 µM
PTHRct-8 peptide with Ala at Glu-6 and Glu-5,Kd,[1],24.4 µM
same,dH,[1],-3.8 kcal/mol
same,stoichiometry N,[1],1.26
same,Kd,[2],57.8 µM
same,dH,[2],-7.2 kcal/mol
same,stoichiometry N,[2],1.26
QEAWETVM [QEAWETVM],Kd,PDZ1 of NHERF1,25.5 ± 1.1 µM
same,Kd,PDZ2 of NHERF1 [3],26.8 ± 2.1 µM
QEAWATVM,n (stoichiometry),"PDZ1 of NHERF1; ITC, PDZ1, 25 °C, mean ± S.E.M. (n = 3)",1.12 ± 0.03
same,n (stoichiometry),"PDZ2 of NHERF1 [3]; ITC, PDZ2, 25 °C, mean ± S.E.M. (n = 3)",1.04 ± 0.02
Biotin-DEEASGPERPPALLQEEWETVM [biotinylated carboxy-terminal 22-amino acid PTHR peptide],koff,[5],0.606 s⁻¹
same,kon,[5],14700 M⁻¹ s⁻¹
same,koff,[6],0.393 s⁻¹
same,kon,[6],57000 M⁻¹ s⁻¹
same,Ki,[7],7 µM
same,Kd,[8],16 µM
same,Kd,[9],11.5 µM
QEEWETVM [wild-type PTHRct-8 peptide],Kd,[10],11.7 µM
same,dH,[10],-10.6 kcal/mol
same,stoichiometry N,[10],1.11
same,Kd,[11],9.7 µM
same,dH,[11],-21.6 kcal/mol
same,stoichiometry N,[11],1.13
{FITC}-LQEEWETVM [FITC-labeled carboxy-terminal PTHR 9-residue peptide],Kd,[12],1 µM
same,Kd,[13],0.6 µM
same,Kd,[14],1 µM
same,Kd,[15],0.6 µM
same,Kd,[16],0.4 µM
same,Kd,[17],0.4 µM
same,Kd,[18],4.7 µM
same,Kd,[19],2.4 µM
LQEEWETVM [unlabeled carboxy-terminal PTHR 9-residue peptide],Ki,[20],1.4 ± 0.9 µM
LQEEWECVM [Thr-2/Cys-2 mutant of PTHRct-9],Ki,[20],11 µM
LQEEWE[pT]VM [phosphorylated Thr-2-PTHRct-9],Ki,[20],121 µM
